Where a SMILES comes first, the peptide text is derived from it. Bridges are numbered along the chain shown (N, C = ends). [ ]: non-standard residue; d: D form. 2Nal = N[C@@H](Cc1ccc2ccccc2c1)C(=O)O; Lys(iPr) = CC(C)NCCCC[C@H](N)C(=O)O
Tests used:
CXCR4 = target: T1, CXCR4 (Homo sapiens, UniProt P61073); test: Competitive binding assay: displacement of 125I-SDF-1α from CXCR4-expressing CCRF-CEM cells; conditions: CCRF-CEM 0.5 × 10^6 cells, 125I-SDF-1α 1 kBq, 0.25 nM SDF-1α, one hour, room temperature per method (b54 says 37 °C); mean ± SD, n = 3
T1 construct: were determined with CCRF-CEM cells expressing endogenous CXCR4; endogenous in cells; host or cells: CCRF-CEM (human acute lymphoblastic leukemia) whole cells
Description: CCRF-CEM cells and ^125I-SDF-1α were used for the competitive binding assay. The competitive binding assay was performed in a 96-well MultiScreen HTS FB plate (Merck) treated with 0.1% polyethyleneimine. RPMI-1640 containing 1% bovine serum albumin (BSA) and 0.05% Tween20 was used for the assay buffer. Briefly, 200-μL reaction mixtures containing CCRF-CEM (0.5 × 10^6 cells), ^125I-SDF-1α (1 kBq), SDF-1α (0.05 pmol; R&D Systems, Minneapolis, MN), and varying concentrations of CXCR4 antagonists were incubated at room temperature for one hour. After the incubation, the cells were washed three times with the assay buffer, and radioactivity counts of cells were determined with a gamma counter. The IC50 values were calculated by using GraphPad Prism version 5.04 (GraphPad Software, San Diego, CA).
Since the purpose of this study was to assess in vivo accumulation to CXCR4-expressing cells, the apparent binding affinities were determined at 37 °C. […] The half-maximal inhibitory concentration (IC50) values of FRM001, its Ga-, Lu-, and Y-complexes, and other CXCR4 antagonists were determined with CCRF-CEM cells expressing endogenous CXCR4[34]. The displacement of ^125I-SDF-1α bound to the CXCR4 with the compounds was also evaluated in the presence of 0.25 nM of SDF-1α.

physchem = assay type: physicochemical; conditions: pH 7.4
Description: A solution of ^67Ga-FRM001 (168 kBq, 56.8 pmol of FRM001) in 0.5 mL of 1-octanol was added to a 0.5 mL solution of phosphate-buffered saline (PBS) (pH 7.4). The mixture was vortexed and rotated at room temperature for 5 min. After centrifugation at 13,000 × g for 5 min, the radioactivity concentrations in samples of both the aqueous and organic phases were determined by using a gamma counter, and the logPow values were calculated.

in vivo = conditions: female, SCID (C.B-17/Icr-scid/scid), mouse, iv, total radioactivity; for tissue uptake at 4 h: biodistribution
Description: All animal experiments were conducted in accordance with the Guidelines for Proper Conduct of Animal Experiments issued by the Science Council of Japan (June 1, 2006), and all experimental protocols were approved by the Institutional Animal Care and Use Committee of FUJIFILM RI Pharma Co., Ltd. (Permit No. Rin-170802 and Rin-180101). The acute lymphoblastic leukemia CCRF-CEM model was prepared using a published procedure. Briefly, 5 × 10^6 cells mixed with Matrigel (1:1; Corning, Corning, NY) were implanted subcutaneously into the rear flank of female 10-week-old SCID mice (C.B-17/Icr-scid/scid; CLEA Japan, Tokyo). After an average of three weeks, the animals were used in biodistribution and PET imaging studies. Tumor volumes ranged from 709–2,257 mm^3, while the tumor mass-to-body weight ratio was 3.1–9.4%.
Mice were sacrificed at four hours after the injection. Organs of interest were removed, weighed, and the radioactivity counts were determined using a gamma counter. The biodistribution of each sample was expressed as a percentage of the injected dose per gram of wet tissue weight (%ID/g).

T1 sequence (P61073 whole entry): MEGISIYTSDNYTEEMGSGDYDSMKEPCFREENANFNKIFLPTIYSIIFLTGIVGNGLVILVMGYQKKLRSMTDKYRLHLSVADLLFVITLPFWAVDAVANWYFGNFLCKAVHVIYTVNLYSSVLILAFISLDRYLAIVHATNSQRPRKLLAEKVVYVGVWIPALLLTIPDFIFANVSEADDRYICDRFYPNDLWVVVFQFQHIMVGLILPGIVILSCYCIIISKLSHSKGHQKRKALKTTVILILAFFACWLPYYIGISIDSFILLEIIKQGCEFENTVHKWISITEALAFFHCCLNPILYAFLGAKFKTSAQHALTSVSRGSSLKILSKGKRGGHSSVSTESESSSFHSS

SMILES: c1ccc(CNCc2ccc(CN3CCCNCCNCCCNCC3)cc2)nc1 [AMD3465, reference compound]
- IC50 (CXCR4): 12.8 ± 1.52 nM

SMILES: CC(C)NCCCC[C@@H]1NC(=O)[C@H](Cc2ccc(O)cc2)NC(=O)[C@H](Cc2ccccc2)NC(=O)CC[C@H](C(=O)N[C@@H](CCCCNC(C)C)C(=O)N[C@@H](CSC2CC(=O)N(CCNC(=O)CN3CCN(CC(=O)O)CCN(CC(=O)O)CCN(CC(=O)O)CC3)C2=O)C(N)=O)NC(=O)CNC(=O)[C@H](Cc2ccc3ccccc3c2)NC(=O)[C@@H](CCCNC(=N)N)NC1=O (stereo partly drawn) [FRM001, cyclo[Phe-Tyr-Lys(iPr)-D-Arg-2-Nal-Gly-D-Glu]-Lys(iPr)-Cys(maleimido-mono-amide-DOTA)-NH2]
- IC50 (CXCR4): 1.78 ± 0.15 nM

SMILES: CC(C)NCCCC[C@@H]1NC(=O)[C@H](Cc2ccc(O)cc2)NC(=O)[C@H](Cc2ccccc2)NC(=O)CC[C@H](C(=O)N[C@@H](CCCCNC(C)C)C(=O)N[C@@H](CSC2CC(=O)N(CCNC(=O)CN3CCN(CC(=O)O)CCN(CC(=O)O)CCN(CC(=O)O)CC3)C2=O)C(N)=O)NC(=O)CNC(=O)[C@H](Cc2ccc3ccccc3c2)NC(=O)[C@@H](CCCNC(=N)N)NC1=O (stereo partly shown) [Ga-FRM001]
- IC50 (CXCR4): 2.26 ± 0.51 nM

SMILES: CC(C)NCCCC[C@H](NC(=O)[C@H]1CCC(=O)N[C@@H](Cc2ccccc2)C(=O)N[C@@H](Cc2ccc(O)cc2)C(=O)N[C@@H](CCCCNC(C)C)C(=O)N[C@H](CCCNC(=N)N)C(=O)N[C@@H](Cc2ccc3ccccc3c2)C(=O)NCC(=O)N1)C(N)=O [LY2510924, cyclo[Phe-Tyr-Lys(iPr)-D-Arg-2-Nal-Gly-D-Glu]-Lys(iPr)-NH2] (FY[Lys(iPr)][dR][2Nal]G[dE][Lys(iPr)]-NH2; lactam N-7)
- IC50 (CXCR4): 1.37 ± 0.1 nM

SMILES: CC(C)NCCCC[C@@H]1NC(=O)[C@H](Cc2ccc(O)cc2)NC(=O)[C@H](Cc2ccccc2)NC(=O)CC[C@H](C(=O)N[C@@H](CCCCNC(C)C)C(=O)N[C@@H](CSC2CC(=O)N(CCNC(=O)CN3CCN(CC(=O)O)CCN(CC(=O)O)CCN(CC(=O)O)CC3)C2=O)C(N)=O)NC(=O)CNC(=O)[C@H](Cc2ccc3ccccc3c2)NC(=O)[C@@H](CCCNC(=N)N)NC1=O (stereo partly shown) [Lu-FRM001]
- IC50 (CXCR4): 2.15 ± 0.14 nM

SMILES: CC(C)NCCCC[C@@H]1NC(=O)[C@H](Cc2ccc(O)cc2)NC(=O)[C@H](Cc2ccccc2)NC(=O)CC[C@H](C(=O)N[C@@H](CCCCNC(C)C)C(=O)N[C@@H](CSC2CC(=O)N(CCNC(=O)CN3CCN(CC(=O)O)CCN(CC(=O)O)CCN(CC(=O)O)CC3)C2=O)C(N)=O)NC(=O)CNC(=O)[C@H](Cc2ccc3ccccc3c2)NC(=O)[C@@H](CCCNC(=N)N)NC1=O (stereo partly shown) [Y-FRM001]
- IC50 (CXCR4): 0.89 ± 0.04 nM

SMILES: CC(C)NCCCC[C@@H]1NC(=O)[C@H](Cc2ccc(O)cc2)NC(=O)[C@H](Cc2ccccc2)NC(=O)CC[C@H](C(=O)N[C@@H](CCCCNC(C)C)C(=O)N[C@@H](CSC2CC(=O)N(CCNC(=O)CN3CCN(CC(=O)O)CCN(CC(=O)O)CCN(CC(=O)O)CC3)C2=O)C(N)=O)NC(=O)CNC(=O)[C@H](Cc2ccc3ccccc3c2)NC(=O)[C@@H](CCCNC(=N)N)NC1=O (stereo partly shown) [^67Ga-FRM001, metal not drawn]
- logD (physchem): -3.23 ± 0.05
- tissue to tissue ratio at 4 h (in vivo; 0.2 nmol FRM001/mouse): 59
- tissue uptake at 4 h (in vivo; 0.2 nmol FRM001/mouse, adrenals): 1.02 ± 0.192 %ID/g
- tissue uptake at 4 h (in vivo; 0.2 nmol FRM001/mouse, blood): 0.205 ± 0.033 %ID/g
- tissue uptake at 4 h (in vivo; 0.2 nmol FRM001/mouse, bone): 0.682 ± 0.099 %ID/g
- tissue uptake at 4 h (in vivo; 0.2 nmol FRM001/mouse, brain): 0.015 ± 0.003 %ID/g
- tissue uptake at 4 h (in vivo; 0.2 nmol FRM001/mouse, fat): 0.291 ± 0.137 %ID/g
- tissue uptake at 4 h (in vivo; 0.2 nmol FRM001/mouse, heart): 0.385 ± 0.063 %ID/g
- tissue uptake at 4 h (in vivo; 0.2 nmol FRM001/mouse, kidneys): 4.85 ± 0.501 %ID/g
- tissue uptake at 4 h (in vivo; 0.2 nmol FRM001/mouse, large intestine): 0.852 ± 0.318 %ID/g
- tissue uptake at 4 h (in vivo; 0.2 nmol FRM001/mouse, liver): 16.1 ± 2.66 %ID/g
- tissue uptake at 4 h (in vivo; 0.2 nmol FRM001/mouse, lungs): 2.01 ± 0.301 %ID/g
- tissue uptake at 4 h (in vivo; 0.2 nmol FRM001/mouse, muscle): 0.107 ± 0.018 %ID/g
- tissue uptake at 4 h (in vivo; 0.2 nmol FRM001/mouse, ovary): 0.808 ± 0.247 %ID/g
- tissue uptake at 4 h (in vivo; 0.2 nmol FRM001/mouse, skin): 0.404 ± 0.076 %ID/g
- tissue uptake at 4 h (in vivo; 0.2 nmol FRM001/mouse, small intestine): 0.355 ± 0.036 %ID/g
- tissue uptake at 4 h (in vivo; 0.2 nmol FRM001/mouse, stomach): 0.381 ± 0.417 %ID/g
- tissue uptake at 4 h (in vivo; 0.2 nmol FRM001/mouse, thymus): 1.57 ± 0.587 %ID/g
- tissue uptake at 4 h (in vivo; 0.2 nmol FRM001/mouse, tumor): 12 ± 1.99 %ID/g
- tissue uptake at 4 h (in vivo; 0.2 nmol FRM001/mouse, uterus): 0.944 ± 0.338 %ID/g
- tissue uptake at 4 h (in vivo; 0.2 nmol/mouse, pancreas): 0.198 ± 0.016 %ID/g
- tissue uptake at 4 h (in vivo; 0.2 nmol/mouse, spleen): 3.77 ± 0.195 %ID/g
